Assay results published in PMC5015938, “A Split-Ubiquitin Based Strategy Selecting for Protein Complex-Interfering Mutations” (G3: Genes|Genomes|Genetics, 2016).

What was measured:
PB_(Cdc24) = biological target: T1, PB_(Cdc24) (Saccharomyces cerevisiae, UniProt P11433 668-854); test: SPR; Biacore X100; PB_(Bem1)-SNAP labelled with BG-Biotin and captured on a CM5 chip coated with anti-biotin antibody; PB_(Cdc24) as analyte; HBSEP (10 mM HEPES, 150 mM NaCl, 3 mM EDTA, 0.05% Tween 20, pH 7.4); conditions: both partners purified
T1 construct: also called Cdc24 PB domain; source: E. coli BL21DE3, purified (IMAC, optional size exclusion chromatography)
T1 sequence (looked up): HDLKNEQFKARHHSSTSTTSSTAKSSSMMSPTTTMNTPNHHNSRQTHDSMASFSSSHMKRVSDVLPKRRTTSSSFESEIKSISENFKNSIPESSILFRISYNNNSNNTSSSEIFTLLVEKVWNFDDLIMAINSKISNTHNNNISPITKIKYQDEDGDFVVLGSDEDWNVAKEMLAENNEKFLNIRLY

PB_(Cdc24)(D833G) = biological target: T2, PB_(Cdc24)(D833G) (Saccharomyces cerevisiae, UniProt P11433 668-854, D833G); test: as above; conditions: both partners purified
T2 construct: also called D833G mutant; source: E. coli BL21DE3, purified (IMAC, optional size exclusion chromatography)
T2 sequence (looked up): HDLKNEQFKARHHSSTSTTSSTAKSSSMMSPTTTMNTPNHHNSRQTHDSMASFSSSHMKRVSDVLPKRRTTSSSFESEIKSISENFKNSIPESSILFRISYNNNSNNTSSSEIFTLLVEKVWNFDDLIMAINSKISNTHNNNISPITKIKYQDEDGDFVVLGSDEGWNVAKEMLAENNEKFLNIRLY

B1: PB_(Bem1)-SNAP (domain or fragment, Saccharomyces cerevisiae, UniProt P29366 431-551, looked up)
chain: ASQTSNFASTNQDNTLTGEDLKLNKKLSDLSLSGSKQAPAQSTSGLKTTKIKFYYKDDIFALMLKGDTTYKELRSKIAPRIDTDNFKLQTKLFDGSGEEIKTDSQVSNIIQAKLKISVHDI
modifications: BG-Biotin covalently on the SNAP tag
notes: Bem1, S. cerevisiae, PB domain, residues 431-551; also called Bem1 PB domain; source: E. coli BL21DE3, purified (IMAC, optional size exclusion chromatography)
Kd (PB_(Cdc24)): 21 nM
Kd (PB_(Cdc24)(D833G)): > 3200 nM
